# Results from patent publication US20180306789A1 (IMMATICS BIOTECHNOLOGIES, published 2018).
# B1: TCR R36P3F9 (TCR, V domains shown)
# V domain 1: SQQGEEDPQALSIQEGENATMNCSYKTSINNLQWYRQNSGRGLVHLILIRSNEREKHSGRLRVTLDTSKKSSSLLITASRAADTASYFCATVSNYQLIWGAGTKLIIKP
# V domain 2: EAQVTQNPRYLITVTGKKLTVTCSQNMNHEYMSWYRQDPGLGLRQIYYSMNVEVTDKGDVPEGYKVSRKEKRNFPLILESPSPNQTSLYFCASSSTSGGLSGETQYFGPGTRLLVLE
# B2: TCR R52P2G11 (TCR, V domains shown)
# V domain 1: RGNGKNQVEQSPQSLIILEGKNCTLQCNYTVSPFSNLRWYKQDTGRGPVSLTIMTFSENTKSNGRYTATLDADTKQSSLHITASQLSDSASYICVVSAYGKLQFGAGTQVVVTP
# V domain 2: DAGVIQSPRHEVTEMGQEVTLRCKPISGHNSLFWYRQTMMRGLELLIYFNNNVPIDDSGMPEDRFSAKMPNASFSTLKIQPSEPRDSAVYFCASSLGSPDGNQPQHFGDGTRLSILE
# B3: TCR R53P2A9 (TCR, V domains shown)
# V domain 1: QTVTQSQPEMSVQEAETVTLSCTYDTSESDYYLFWYKQPPSRQMILVIRQEAYKQQNATENRFSVNFQKAAKSFSLKISDSQLGDAAMYFCAYNSYAGGTSYGKLTFGQGTILTVHP
# V domain 2: DAGVTQSPTHLIKTRGQQVTLRCSPISGHKSVSWYQQVLGQGPQFIFQYYEKEERGRGNFPDRFSARQFPNYSSELNVNALLLGDSALYLCASSLDGTSEQYFGPGTRLTVTE
# Target: HLA-A*02-presented DCAF4L2-001 on target cells (human)
# Test: cell-based or functional assay
row,EC50 of target peptide titration (IFNγ release) [nM],Binder
1,~3.6,B1
2,~8.5,B2
3,~11.8,B3
